Source: patent US20090286858A1, “ASSAYS FOR MODULATORS OF ASPARAGINYL HYDROXYLASE” (ISIS INNOVATION LIMITED, priority 2002, published 2009)
Like-named read-outs stand apart in the source and are kept apart here. Where no end group is shown, it is not given here.

How the values were obtained:
Assay type in all cases: biochemical
FIH [1] = target: T1, FIH (Homo sapiens, UniProt Q9NWT6); experiment: GST pulldown assay: capture of 35S-labelled p300 CH1 by HIF-1α CAD after exposure to FIH; details: for ability to capture CH1 after pre-incubation with FIH: GST-fused polypeptide, 35S-labelled CH1
T1 construct: His6 (N, cleaved yes); made in house; host or cells: Escherichia coli BL21(DE3)
Procedure: N-oxaloylglycine was added to 5 mM when required. Glutathione Sepharose beads were added for 40 minutes at 25° C. and then washed with 50 mM Tris/HCl pH 7.4, 0.5% NP40, 150 mM NaCl and 1 mM DTT. […] Binding was performed for 1 hour at 25° C. and the beads were then washed in the same buffer. The bound proteins were eluted in SDS running buffer and analyzed by SDS-PAGE and autoradiography.

FIH [2] = target: T1, FIH; experiment: FIH 2-OG decarboxylation (CO2 release) assay with HIF-1α polypeptide substrates; details: for % activity relative to 775-826 peptide: same conditions; for % activity relative to 775-826 peptide / CO2 released: polypeptide as FIH substrate; for CO2 released: standard assay conditions
Procedure: (§1) FIH assays—Assays for decarboxylation of 2-OG were performed using radiolabelled 2-OG (New England Nuclear) as reported in Epstein et al supra. Incubations contained ascorbate, DTT, catalase, 2-OG, FIH, and substrate in 50 mM Tris/HCl pH7.4, and were carried out at 37° C. typically for 20 minutes. HPLC separations were achieved on a Phenomenex Jupiter C4 (10 cm×4.6 mm) column by using of a linear gradient of CH3CN in 0.1% TFA. For inhibition and metal dependence assays, GST HIF-1α 775-826 was used as substrate at 30 μM, and with iron (II) ammonium sulfate, cobalt (II) chloride, zinc (II) chloride, and N-oxaloylglycine at final concentrations of 0, 2, 10, 40, 80 and 200 μM. Assays under an atmosphere of ^18O2 were performed as reported in McNeill et al, Bioorg Med Chem Lett, 2002 12, 1547-1550.

FIH [3] = target: T1, FIH; experiment: FIH inhibition and metal dependence assays (2-OG decarboxylation, GST HIF-1α 775-826 as substrate)
Procedure: as §1
Further characterization of FIH activity—To explore the mechanism of FIH and its relationship to the characteristics of in vivo HIF activation, in vitro analyses of FIH using the purified recombinant protein were performed.

[4] = in vitro kinetic assays, recombinant FIH, GST HIF-1α 775-826 at 30 μM, read-out: IC50

T1 sequence (Q9NWT6 with tags, fused parts or gaps): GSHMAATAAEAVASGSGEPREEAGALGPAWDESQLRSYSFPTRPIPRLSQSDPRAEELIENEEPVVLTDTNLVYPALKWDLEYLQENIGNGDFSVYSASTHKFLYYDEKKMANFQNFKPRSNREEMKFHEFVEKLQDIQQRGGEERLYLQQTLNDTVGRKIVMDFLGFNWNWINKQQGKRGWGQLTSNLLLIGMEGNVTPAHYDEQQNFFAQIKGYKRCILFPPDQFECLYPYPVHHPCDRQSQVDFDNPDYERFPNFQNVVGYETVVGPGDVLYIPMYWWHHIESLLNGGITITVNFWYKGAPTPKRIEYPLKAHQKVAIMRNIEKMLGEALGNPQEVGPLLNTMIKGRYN

| % activity relative to 775-826 peptide (FIH [2]) | CO2 released (FIH [2]) | Molecule | further results |
| --- | --- | --- | --- |
| 96% | 2.7 nmol | GST HIF-1α 775-826: N-terminal glutathione S-transferase tagged fusion of human HIF-1α residues 775-826 (CAD) | ability to capture CH1 after pre-incubation with FIH (FIH [1]): strikingly reduced |
| 100% | 2.8 nmol | HIF-1α 775-826: free polypeptide encompassing the human HIF-1α CAD (residues 775-826), GST tag removed | Vmax (FIH [2]; preliminary kinetic parameter, 2-OG turnover assay): 0.3 µmol/min/mg; Km (FIH [2]; preliminary kinetic parameter, 2-OG turnover assay, read-out: Km(peptide)): 10 µM |
| <0.01% | <0.001 nmol | GST HIF-1α 775-826 N803A: GST HIF-1α 775-826 with Asn-803 mutated to alanine (PSDLACRLLGQSMDESGLPQLTSYDCEVAAPIQGSRNLLQGEELLRALDQVN; cysteine pairing not given here; also: GST fusion, not in chain) | ability to capture CH1 after pre-incubation with FIH (FIH [1]): unaffected |
| <0.01% | <0.001 nmol | GST HIF-1α 775-826 N803E: GST HIF-1α 775-826 with Asn-803 mutated to glutamate (PSDLACRLLGQSMDESGLPQLTSYDCEVEAPIQGSRNLLQGEELLRALDQVN; cysteine pairing not given here; also: GST fusion, not in chain; UniProt Q16665 775-826, looked up, variant N803E) |  |
| 1.8% | 0.05 nmol | GST HIF-1α 530-652: GST tagged fusion of human HIF-1α residues 530-652 (protein, left off: a dimerising Fc or GST) EFKLELVEKLFAEDTEAKNPFSTQDTDLDLEMLAPYIPMDDDFQLRSFDQLSPLESSSASPESASPQSTVTVFQQTQIQEPTANATTTTATTDELKTVTKDRMEDIKILIASPSPTHIHKETT |  |

More lines, now with the values behind:

| Molecule | % activity relative to 775-826 peptide (FIH [2]) | CO2 released (FIH [2]) | further results |
| --- | --- | --- | --- |
| GST HIF-1α 775-826 N803D: GST HIF-1α 775-826 with Asn-803 mutated to aspartate (PSDLACRLLGQSMDESGLPQLTSYDCEVDAPIQGSRNLLQGEELLRALDQVN; cysteine pairing not given here; also: GST fusion, not in chain; UniProt Q16665 775-826, looked up, variant N803D) | 7% | 0.22 nmol | 2-OG turnover relative to the analogous Asn-803 substrate (FIH [2]; GST HIF-1α 775-826 mutant): ≤ 7% |
| O=C(O)CNC(=O)C(=O)O [N-oxaloylglycine, reference compound] |  |  | inhibition of FIH effect on CH1 capture by HIF-1α CAD (FIH [1]; N-oxaloylglycine 5 mM in FIH/HIF-1α CAD reaction step): inhibited the effect of FIH; IC50 (FIH [3]): 25 µM |
| GST HIF-1α 577-826: GST tagged fusion of human HIF-1α residues 577-826 | 67% | 0.81 nmol |  |
| [Cl-].[Cl-].[Co+2] [Cobalt (II), cobalt (II) chloride] |  |  | IC50 (FIH [3]; [4]): 10 µM |
| O=S(=O)([O-])[O-].O=S(=O)([O-])[O-].[Fe+2].[NH4+].[NH4+] [iron (II), iron (II) ammonium sulfate] |  |  | effect of exogenous metal on FIH activity (FIH [3]; added to purified FIH/HIF-1α CAD assay): no further increase in activity |
| [Cl-].[Cl-].[Zn+2] [zinc (II), zinc (II) chloride] |  |  | IC50 (FIH [3]; [4]): 10 µM |
| GST HIF-1α 775-826 N803Q: GST HIF-1α 775-826 with Asn-803 mutated to glutamine (PSDLACRLLGQSMDESGLPQLTSYDCEVQAPIQGSRNLLQGEELLRALDQVN; cysteine pairing not given here; also: GST fusion, not in chain; UniProt Q16665 775-826, looked up, variant N803Q) | <0.01% | <0.001 nmol |  |
| 2-oxoglutarate [2-OG, reference compound] |  |  | Km (FIH [2]; preliminary kinetic parameter, with free HIF-1α 775-826 peptide, 2-OG turnover assay, read-out: Km(2-OG)): 10 µM |
| His6-HIF-1α 530-698: His6-tagged section of HIF-1α, residues 530-698 (protein, left off: small tags and cut ends) EFKLELVEKLFAEDTEAKNPFSTQDTDLDLEMLAPYIPMDDDFQLRSFDQLSPLESSSASPESASPQSTVTVFQQTQIQEPTANATTTTATTDELKTVTKDRMEDIKILIASPSPTHIHKETTSATSSPYRDTQSRTASPNRAGKGVIEQTEKSHPRSPNVLSVALSQR | <0.01% | <0.001 nmol |  |
| His6-HIF-1α 344-503: His6-tagged section of HIF-1α, residues 344-503 (protein, left off: small tags and cut ends) GIIQHDLIFSLQQTECVLKPVESSDMKMTQLFTKVESEDTSSLFDKLKKEPDALTLLAPAAGDTIISLDFGSNDTETDDQQLEEVPLYNDVMLPSPNEKLQNINLAMSPLPTAETPKPLRSSADPALNQEVALKLEPNPESLELSFTMPQIQDQTPSPSD | <0.01% | <0.001 nmol |  |
